These results are taken from patent publication US20120328619A1 (published 2012).

Experiment [1] addresses T1, human CD16 (FcγRIII) (human, UniProt P08637 17-254).
T1 construct: whole, on cells
In words: calibrated flow cytometry on CD16-transfected CHO cells. Here is the method:
(§1) Immunofluorescence analysis was performed on a FACSCalibur instrument using CellQuest software (Becton Dickinson, Heidelberg, Germany) as described (Schwemmlein et al, 2006). Briefly, 1×10⁴ events were collected for each sample, and whole cells were analyzed using appropriate scatter gates to exclude cellular debris and aggregates. […] KD values were determined by calibrated flow cytometry, as described (Benedict at al, 1997). The highest mean fluorescence value was set to 100%, and all data points were normalized to this value. The experiments were repeated 6 times. The KD values were calculated using a nonlinear regression curve fit.
On the technique in general: In flow cytometry, cells or beads pass a laser one at a time.

Experiment [2] concerns the target T2, CD33 (human, UniProt P20138 18-364).
T2 construct: whole, on cells; also called CD33 on U937 cells
The experiment in a line: calibrated flow cytometry on U937 cells. Here is the method: as §1

Experiment [3] addresses T3, human CD123 (alpha subunit of the interleukin-3 receptor) (human, UniProt P26951 19-378).
T3 construct: whole, on cells; also called IL-3Rα
In words: calibrated flow cytometry on CD123-transfected 293 cells. Here is the method: as §1

The target in experiment [4] is T4, CD123 and CD33 on double positive MOLM-13 cells (human, UniProt P26951 19-378; P20138 18-364).
T4 construct: whole, on cells; Two separate surface antigens on the same cell, not a complex; also called CD33/CD123
T4 sequence (P26951 19-378, chain 1 of 2): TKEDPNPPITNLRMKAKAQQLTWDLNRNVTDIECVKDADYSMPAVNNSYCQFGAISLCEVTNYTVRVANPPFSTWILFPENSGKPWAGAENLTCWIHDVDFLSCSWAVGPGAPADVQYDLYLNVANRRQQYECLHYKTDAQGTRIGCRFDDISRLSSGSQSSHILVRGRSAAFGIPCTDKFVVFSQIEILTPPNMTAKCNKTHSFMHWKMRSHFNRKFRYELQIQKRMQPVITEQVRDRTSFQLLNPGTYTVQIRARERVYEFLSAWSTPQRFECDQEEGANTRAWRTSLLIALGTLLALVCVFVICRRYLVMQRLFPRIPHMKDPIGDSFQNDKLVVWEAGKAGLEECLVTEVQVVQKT
T4 sequence (P20138 18-364, chain 2 of 2): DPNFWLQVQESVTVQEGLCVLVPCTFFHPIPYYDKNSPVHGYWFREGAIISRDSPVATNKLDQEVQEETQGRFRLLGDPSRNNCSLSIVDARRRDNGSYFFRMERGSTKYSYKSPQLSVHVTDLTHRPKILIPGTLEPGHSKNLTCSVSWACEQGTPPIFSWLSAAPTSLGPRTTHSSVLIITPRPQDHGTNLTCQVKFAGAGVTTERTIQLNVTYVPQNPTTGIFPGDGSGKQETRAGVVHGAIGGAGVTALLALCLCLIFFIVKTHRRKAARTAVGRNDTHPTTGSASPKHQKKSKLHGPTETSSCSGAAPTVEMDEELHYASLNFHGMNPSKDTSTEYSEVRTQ
The experiment in a line: calibrated flow cytometry on CD123 and CD33 double positive MOLM-13 cells (avidity). Here is the method: as §1

The target in experiment [5] is T3, human CD123 (alpha subunit of the …). The experiment in a line: calibrated flow cytometry.

T3 sequence (P26951 19-378): as the sequence (P26951 19-378, chain 1 of 2) above
T2 sequence (P20138 18-364): as the sequence (P20138 18-364, chain 2 of 2) above
T1 sequence (P08637 17-254): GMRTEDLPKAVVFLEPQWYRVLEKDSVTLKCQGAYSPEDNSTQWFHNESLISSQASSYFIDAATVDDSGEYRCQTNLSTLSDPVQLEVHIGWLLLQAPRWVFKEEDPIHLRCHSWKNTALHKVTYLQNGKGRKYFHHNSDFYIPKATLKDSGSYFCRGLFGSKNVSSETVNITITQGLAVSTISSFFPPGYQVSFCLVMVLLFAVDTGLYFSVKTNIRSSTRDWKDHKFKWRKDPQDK

B1: single chain triplebody sctb [123×ds16×33] (other)
chain: MADYKDIVMTQSHKFMSTSVGDRVNITCKASQNVDSAVAWYQQKPGQSPKALIYSASYRYSGVPDRFTGRGSGTDFTLTISSVQAEDLAVYYCQQYYSTPWTFGGGTKLEIKRGGGGSGGGGSGGGGSGGGGSEVKLVESGGGLVQPGGSLSLSCAASGFTFTDYYMSWVRQPPGKALEWLALIRSKADGYTTEYSASVKGRFTLSRDDSQSILYLQMNALRPEDSATYYCARDAAYYSYYSPEGAMDYWGQGTSVTVSSASGAGGGGSGGGGSGGGGSGGGGSAAADYKDIVLTQSPASLAVSLGQRATISCKASQSVDFDGDSFMNWYQQKPGQPPKLLIYTTSNLESGIPARFSASGSGTDFTLNIHPVEEEDTATYYCQQSNEDPYTFGCGTKLELKRGGGGSGGGGSGGGGSGGGGSQVTLKESGPGILQPSQTLSLTCSFSGFSLRTSGMGVGWIRQPSGKCLEWLAHIWWDDDKRYNPALKSRLTISKDTSSNQVFLKIASVDTADTATYYCAQINPAWFAYWGQGTLVTVSRGGGGSGGGGSGGGGSGGGGSMADYKDIVMTQSHKFLLVSVGDRVSITCKASQDVSTAVAWYQQKPGQSPKLLIYSASYRYTGVPDRFIGSGSGTDFTLTISSVQAEDLADYFCQQHYSTPLTFGAGTKLEIKRGGGGSGGGGSGGGGSSGGGSEVQLKESGPGLVAPSQSLSITCTVSGFPLTSYGVSWVRQPPGKGLEWLGVIWGDGSTNYHSALISRLSISKDNSKSQVFLKLNNLQTDDTATYYCARDTYYPYYAMDYWGQGTSVTVSS
notes: also called CD123×dsCD16×CD33
For the molecule B1, the Kd was determined as 21.7 nM in experiment [1], 17.8 nM in experiment [2], 18.8 nM in experiment [3] and 13.5 nM in experiment [4].

B2: CD123-specific scFv clone 43 (scFv)
scFv: MADYKDIVMTQSHKFMSTSVGDRVNITCKASQNVDSAVAWYQQKPGQSPKALIYSASYRYSGVPDRFTGRGSGTDFTLTISSVQAEDLAVYYCQQYYSTPWTFGGGTKLEIKRGGGGSGGGGSGGGGSGGGGSEVKLVESGGGLVQPGGSLSLSCAASGFTFTDYYMSWVRQPPGKALEWLALIRSKADGYTTEYSASVKGRFTLSRDDSQSILYLQMNALRPEDSATYYCARDAAYYSYYSPEGAMDYWGQGTSVTVSS
notes: Murine scFv from a phage display library, expressed in E. coli from pAK400, carries a hexahistidine tag
On to B2, for which the Kd in experiment [5] is 4.5 nM.
